From the nanobody polyreactivity screen of Harvey et al. (2022)

Test: yeast display, Sf9 membrane polyspecificity reagent, FACS + sequencing; frameworks hold sequencing errors
Outline: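 Nanobodies came from a synthetic yeast display library in Saccharomyces cerevisiae BJ5465, induced with galactose for 36–48 hours and stained for 1 hour at 4 °C with 10% biotinylated, detergent-solubilized Sf9 membrane reagent. Cells were enriched on streptavidin microbeads and then FACS-sorted, with low and high (top ~1%) gates set on anti-HA fluorescence for expression and streptavidin fluorescence for reagent binding. Each polyreactivity label reflects the gate a clone came from. Genes were amplified by colony PCR, sequenced by MiSeq 2 × 250 and filtered by CDR length.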

Row | Sequence | polyreactivity (PSR sort gate)
1 | QVQLVESGGGLVQAGGSLRISCAASGSIFHFNAMGWYRQAPGKERELVARISIGGGSTYYADSVKGRFTISRDNAKNTVYFQMKSLKPEDTAVYYCGVDGSPRYKYDYWGQGTQVNVSS | high polyreactivity
2 | QVQLVESGGGLVQAGGSLRLSCAASGRIFSTNAMGWYRQAPGTERELVAAISRRGASTYYADSVKGRFTISRDNAKNTVYLQMNSLKPEDTAVYYCAAVIGTGGRYNYWGQGTQVTVSS | high polyreactivity
3 | QVQLVESGGGLVQAGGSLRLSCAASGITFGVYGMGWYRQAPGKERELVAAIDQSGDSTYYADSVKGRFTISRDNAKNTVYLQMNSLKPEDTAVYYCAAQSYDYWYDYDYWGQGTQVTVSS | high polyreactivity
4 | QVQLVESGGGLVQAGGSLRLSCAASGYTFPSYAMGWYRQAPGKERELVAVITIGGTYYADSVKGRFTISRDNAKNTVYLQMNSLKPEDTAVYYCAADWAWDYYRGFDYWGQGTQVTVSS | low polyreactivity
5 | QVQLVESGGGLVQAGGSLRLICAASGLIFKFYAMGWYRQAPGKERELVASIRGSGDNTYYADSVKGRFTISRDNAKNTVYLQMNSLKPEDTAVYYCAADWLYDYGEYYYWGQGTQVTVSS | high polyreactivity
6 | QVQLQESGGLVQAGGLRLSSAASGSVSYQEAMGWYRQAPGKERELVATISFGANTNYADSVKGRFTISRDNAKNTVYLQMNSLKPEDTAVYYCAAESLFDDYYGYWGQGTQVTVSS | low polyreactivity
7 | QVQLVESGRGLFQAGGSLRLSCAASGSTFSGYAMGWYRPAPGKERELVATITRRGGNTYYADSVKGRFTISRDNAKNTVYLQMNSLKPEDTAVYYCSKDGRVHSPYDYWGQGTQVTVSS | low polyreactivity
8 | QVQLVESGGGLVQAGGSLRLSCAASGSTFPSYAMGWSRQAPGKERELVAAISRSGGSTYYADSVKGRFTISRDNAKNTVYLQMISLKPEDTAVYYCAARGHLRYESDYWGQGTQVTVSS | high polyreactivity
9 | QVQLVESGGGLVQAGGSLRLSCAASGRIFRYYAMGWYRQAPGKERELVAAITGRGTSTYYADSVKGRFTISRDNAKNTVYVQMNSLKPEDTAVYYCAAGSVLRYWAGDYWGQGTQVTVSS | low polyreactivity
10 | QVQLVESGGGLVQAGGSLRLSCAASGRIFQLYTMGWYIQAPGKERELVAAITSGTSTSYADSVKGRFTISRDNAKNTVYLQMNSLKPEDTAVYYCNKGSVSYSSVFVPYESDYWGQGTQVTVSS | low polyreactivity
11 | QVQLVESGGGLVQAGGRLRLSCAASGTIFDFYAMGWYRQAPGKERELVATITASGGSTYYADSVKGRFTISRDNAKNTVYLQMKSLKPEDTAVYYCAAVGPHWYGQGWALYRFEYWGQGTQVTVSS | low polyreactivity
12 | QDQLVESGGGLVQAGGSLRLSCAASGFIFDDNAMGWSRQAPGKERELVAAITSGGGSTYYAVSVKGRFTISRDNAKNTVYLQMNSLKPEDTAVYYCNAVPSQHDEFDYWGQGTQVTVSS | low polyreactivity
13 | QVQLVESGGGLVQAGGTLRLSCAASGFIFDWNTKGWYRQAPGKERELVAAITESSGSTYYADSVKGRFTISRDNAKNTVYLQMNSLKPEDTAVYYCAAELDVYVSIGSRFHFDYWGQGTQVTVSS | low polyreactivity
14 | QVQLVESGGGLVQAGGSLRLSCAASGSTFPYNAMGWYRQAPGKERELVAAITWRAGRTYYADSVKGRFTISRDNAKNTVYLQMNSLKPEDTAVYYCAKSYQRGVNHYEYWGQGTQVTVSS | high polyreactivity
15 | QVQLVESGGGLVQAGGSLRLSCAASGSIIDRYAMGWYRQAPGKERELVAAISRSGGSTYYADSVKGRFTISRDNAKNTVYLQMKSLKPEDTAFYYCAAGGDSGDDWGQGTQVTVSS | low polyreactivity
16 | QVQLVESGGGLVQAGGSLRLSCAASGRIFVTNAMGWYRQAPGKERELVAAISTGGSTNYADSVKGRFTISRDNAKNTVYVQRNSLKPEDTAVYYCNRGSRYSHKYDYWGQGTQVTVSP | high polyreactivity
17 | QVQLVESGGGLVQAGGSLRLSCAASGSIFYHNAMGWYRQAPGKERELVAAITWSGSTTYYADSVKGRFTISRDNAKNTVYLQMNSLKPEDTAVYYCNAGNRHGHYDYWGQGTQVTVSS | low polyreactivity
18 | QVQLVESGGGLVQAGGSLRLSCAASGSIFKHNDMGWYRQAPGKERELVAAISRSGGATYYAHSVKGRFTISRDNAKNTVYLQMNSLKPEDTAVYYCNAGRRTARYGYWGQGTQVTVSS | high polyreactivity
19 | QVQLVESGGGLVQAGGSLRLSCAASGRTFDHNAMGWYRQAPGKERELVAAITSRGGSTYYADSVKGRFTISRDNAKNTVYLQMNSLKPEDTAVYYCNRYKSSSYIRGDYWGQGTQVTVSS | high polyreactivity
20 | QVQLVESGGGLVQAGGSLRLSCAASGFTFVNNAMGWYRQAPGKERELVAAISGGGTTNYADSVKGRFTISRDNAKNTVYLQMNSLKPEDTAVYYCAARRYFGLWYFWYDYWGQGTQVTVSS | high polyreactivity
21 | QVQLVESGGGLVQAGGSLRLSCAASGFIFGLYAIGWYRQAPGKERELVAAISRSGGSTYYADSVKGRFTISRDNAKNTVYLQMNSLKPEDTAVYYCNARYSWPRATWYDYWGQGTQVTVSS | high polyreactivity

Row | Sequence | polyreactivity (PSR sort gate)
22 | QVQLVESGGGLVQAGGSLRLSCAASGRIFFTNAMGWYTQAPGKERELVAAISKSGARTYYADSVKGRFTISRDNAKNTVYLLMNSLKPEDTAVYYCAADVCVYGYDYWGQGTQVTVSS | high polyreactivity
23 | QVQLVESGGGLVQAGGSLRLSCAASGFIFLVNAMGWYRGAPGKERELVAAISKSTGGTYYADSVKGRFTISRDNAKNTVYLQMNSLKPEDTAVYYCAADEVYPVQRDMDYWGQGTQVTVSS | low polyreactivity
24 | QVQLVESGGGLVQAGGSLRLSCAASGFTFAVNAMGWYRQAPGKERELVAAISKSGGRTYYADSVKGRFTISRDNAKNTVYLQMNSLKPEDTAVYYCAADGPGYTYDYWGQGTQVTVSS | high polyreactivity
25 | QVQLVESGGGLVQAGGSLRLSCAASGSIFGKYAMGWYRQAPGKERELVAAISERTGRTYYADSVKGRFTISRDNAKNTVYLQMNSLKPEDTAVYYCNVVPLDSGWSTYGYDYWGQGTQVTVSS | high polyreactivity
26 | QVQLVESGGGLVQAGGSLRLSCAASGFIFPVYAMGWYTQGGGKERELVADISSDGSTNYADSVKGRFTISRDNAKNTVYLQMNSLKPEDTAVYYCAREDNLRHQSDSRYDYWGQGTQVTVSS | low polyreactivity
27 | QDQLVESGGGLVQAAGSLRLSCAASGSTFLGNALGWYRQARGKERQLVAAISGRGGSTYYADSVKGRFTISRDNAKNTVYVQMNSLKPEDTAVYYCNAVGRRVRTWHDYDYWGKGTQVTVSS | high polyreactivity
28 | QVQLVESGGGLVQAGGSLRLSCAASGRISSVYAMGWYRQAPGKERELVAAINWRVGSTYYADSVKGRFTISRDNAKNTVYLQMNSLKPEDTAVYYCAVDPVYGIIGSRYDYWGQGTQVTVSS | low polyreactivity
29 | QVQLVESGGGLVQAGGSLRLSCAASGRIFTGNALGWYRPAPGKERELVAGISTSGGSTYYADSVKGRFTISRDNAKNTVYLQMNSLKPEDTAVYYCAADWYYRRSYRRMNYWGQGTQVTVSS | high polyreactivity
30 | QVQLVESGGGLVQAGGSLRLSCAASGSTFYFNAMGWYRQAPGKERELVATIRSGDSTYYADSVKGRFTISSDNAKNTVYLQMNSLKPVDTAVYSCPGPLPYYGQYDYWGQGTQVTVSS | low polyreactivity
31 | QVQLVESGGGLVQAGGSLRLSCAASGFIFFNYAMGWYRQAPGKERELVAVIDRSGGTTYYADSVKGRFTISRDNAKNTVYLQMNSLKPEDTAVYYCNADDFTYPSGWGFIYDYWGQGTQVTVSS | low polyreactivity
32 | QVQLVESGGGLVQAGGSLRLICAASGNTFSVYTMGWYRQAPGKERELVAAISFRSGSTYYADSVKGRFTISRDNAKNTVYLLMNSLKPEDTAVYYCAAYVRQLQVVRGVSNYDSWGQGTQVTVSS | high polyreactivity
33 | QVQLVESGGGLVQAGGSLRLSCAASGSIFNVYVMGWYRQAPGKERELVASITWTTGSTYADSVKGRFTISRDNAKNSVYFQMNSLKPEDTAVYYCNAEFPEDTSDDYWGQGTQVNVSS | low polyreactivity
34 | QVQLVESGGGLVQAGGSLRLSCAASGFTFYAYAMGWYRQAPGKERELVAAISSRGGRTYYADSVKGRFTISRDNAKNTVYLQMNSLKPEDTAVYYCIVPYYSFRELSSYYWGQGTQVTVSS | high polyreactivity
35 | QVQLVESGGGLVQAGGSLRLSCAASGSIFTSYGMGWYRQAPGKERELVAAITYSGDRTYYADSVKGRFTISRDNAKITVYLQMNSLNPEDTAVYYCNVAYVYGSFRRRPMGYWGQGTQVTVSS | high polyreactivity
36 | QVQLVESGGGLVQAGGSLRLSCAASGRTYFYNTMGWYRQAPGKESELVARITRGGSTYYADSVKGRFTISRDNAKNTVYLQMPSLKPEDTAFYYCAAGYWRGYFLYGFDYWGQGTQVTVSS | high polyreactivity
37 | QVQLVESGGGLDQAGGSLRLSCAASGRIIRYYAKGWYRQAPGKEREFVATISSGGSTNYADSVKGRFTISRDNAKNNVYLQMNSLKQEHTSVYYCNRVYSRHVWGQGTQVTVSS | high polyreactivity
38 | QVQLVESGGGFVQAGGSLRLSCAASGSTFKTYTLGWYRQAPGKDRELVAGITSGGSTSYADSVKGRFTISRDNAKNTVYLQMNSLKPEATAVYYCNADAYLVIYFYTVRDYGYDYWGQGTQVTVSS | low polyreactivity
39 | QVQLVESGGGLVQAGGSLRLSCAASGRTFFYYAMGWYRPAPGKERELVAGSTNYADSVKGRFTISRDNAKNTVYLQMNSLKPEETAVYYCNADPDDYWGQGTQVTVSS | low polyreactivity
40 | QVQLVESGGGLVQAGGSLRIICAASGRTFDRYAMRGYRQAPGKERELVAASTRRGTTTYYADSVKVRFSISRDYAKNTVYLQMYSLKPEDTAVYYCAAKRGCVSRPDYGANDESWGQGTQVTVSS | high polyreactivity
41 | QVQLVESGRGLVQAGGSLRLSCAASGSIFYGNTMGWYRQAPGTERELVASITRPGDRTYYADSVKGRFTLSRDNAKNTVDLQMNSLKAEDTAVYYCNAGLVLPPPGACIVYFDQMDYWGQGTQVTVSS | low polyreactivity
